Experiments:
[1] = target: LigA LigAVar12 (Leptospira interrogans) (UniProt Q72MA6); test: SPR
[2] = target: LigA LigAVar11 (Leptospira interrogans) (UniProt Q72MA6); test: SPR
[3] = target: LigA LigAVar13 (Leptospira interrogans) (UniProt Q72MA6); test: SPR
[4] = target: LigA LigAVar7'-8 (Leptospira interrogans) (UniProt Q72MA6); test: SPR
[5] = target: LigA LigAVar10 (Leptospira interrogans) (UniProt Q72MA6); test: SPR
[6] = target: LigA LigAVar13 (Leptospira interrogans) (UniProt Q72MA6); test: ELISA
[7] = target: LigA LigAVar10 (Leptospira interrogans) (UniProt Q72MA6); test: ELISA
[8] = target: LigBCen9 (Leptospira; L. interrogans serovar Pomona is the only strain named); test: SPR
[9] = target: LigBCen7'-8 (Leptospira; L. interrogans serovar Pomona is the only strain named); test: SPR
[10] = target: LigAVar12 (Leptospira; L. interrogans serovar Pomona is the only strain named); test: SPR
[11] = target: Alexa-488 labeled LigBCen2RW1073C (Leptospira; L. interrogans serovar Pomona is the only strain named); test: other fluorescence titration
[12] = target: Gelatin-binding domain of human plasma fibronectin (human); test: SEC-MALS; mixtures of Lig protein and GBD on Superose 6, 20 mM HEPES, 150 mM NaCl, pH 7.5
[13] = target: Gelatin-binding domain of human plasma fibronectin (human); test: ELISA
[14] = target: Gelatin-binding domain of human plasma fibronectin (human); test: ITC; GBD in the cell (1 ml), Lig protein in the syringe (250 µl), 25 injections of 10 µl, 25°C, Tris buffer with 100 µM CaCl2; independent binding model

Sequence of Fibronectin gelatin binding domain (P02751 306-608): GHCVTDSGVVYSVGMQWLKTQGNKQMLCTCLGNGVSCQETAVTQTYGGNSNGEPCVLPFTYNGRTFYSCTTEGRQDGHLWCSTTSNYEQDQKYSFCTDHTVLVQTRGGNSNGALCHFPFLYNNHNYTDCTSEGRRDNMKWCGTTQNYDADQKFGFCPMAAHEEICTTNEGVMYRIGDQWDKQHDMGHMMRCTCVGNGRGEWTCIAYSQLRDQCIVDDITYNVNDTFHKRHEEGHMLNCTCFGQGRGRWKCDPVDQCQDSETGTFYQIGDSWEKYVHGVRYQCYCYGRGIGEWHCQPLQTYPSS

Substance	stoichiometry N [12]	Kd [13]	1/n [14]	Kd [14]	dH [14]	stoichiometry N [14]	other results
Fibronectin gelatin binding domain (from UniProt P02751)							Kd [1]: 2870 nM; Kd [2]: 5040 nM; Kd [3]: 10400 nM; Kd [4]: 6680 nM; Kd [5]: 4250 nM; Kd [6]: 11000 nM; Kd [7]: 3940 nM
Gelatin-binding domain of human plasma fibronectin (domain or fragment)							koff [8]: 0.00473 s⁻¹; kon [8]: 560 M⁻¹ s⁻¹; koff [9]: 0.00963 s⁻¹; kon [9]: 3570 M⁻¹ s⁻¹; koff [10]: 0.00678 s⁻¹; kon [10]: 2360 M⁻¹ s⁻¹; Kd [11]: 1930 nM
LigAVar7'-9 (domain or fragment)	0.97 GBD: Lig	6580 nM	0.98 GBD: Lig	6110 nM	-29.2 kcal/mol	1.02 Lig: GBD	
LigAVar7'-10 (domain or fragment)	2 GBD: Lig	4720 nM	1.96 GBD: Lig	4350 nM	-25.3 kcal/mol	0.51 Lig: GBD	
LigAVar7'-11 (domain or fragment)	2.96 GBD: Lig	3240 nM	2.98 GBD: Lig	3130 nM	-22.1 kcal/mol	0.335 Lig: GBD	
LigAVar7'-12 (domain or fragment)	4.04 GBD: Lig	2440 nM	3.92 GBD: Lig	2410 nM	-30.8 kcal/mol	0.255 Lig: GBD	
LigAVar7'-13 (domain or fragment)	5.05 GBD: Lig	48 nM	4.92 GBD: Lig	47 nM	-94.9 kcal/mol	0.203 Lig: GBD	
LigBCen7'-8 (domain or fragment)	1.01 GBD: Lig		1.01 GBD: Lig	2280 nM	-20.4 kcal/mol	0.985 Lig: GBD	
LigBCen7'-9 (domain or fragment)	2.05 GBD: Lig	1390 nM	1.92 GBD: Lig	1310 nM	-21.1 kcal/mol	0.52 Lig: GBD	
LigBCen7'-10 (domain or fragment)	2 GBD: Lig	1460 nM	1.96 GBD: Lig	1350 nM	-26.7 kcal/mol	0.51 Lig: GBD	
LigBCen7'-11 (domain or fragment)	1.98 GBD: Lig	1470 nM	2.08 GBD: Lig	1390 nM	-29 kcal/mol	0.479 Lig: GBD	

— article PMC2892007
